The values that follow come from the RNAGym collection of RNA variant scans (doi:10.7554/elife.80360).

First the molecules themselves.
B1: HDV Ribozyme (parent)
chain: GGCCGGCAUGGUCCCAGCCUCCUCGCUGGCGCCGGCUGGGCAACAUUCCGAGGGGACCGUCCCCUCGGUAAUGGCGAAUGGGACCCA

In the data set the parent is B1. The data set can be described thus: self-cleavage, relative activity (ratio to wild type); higher = more cleavage; co-transcriptional.
Turning to GGCCGGCAUGGUCCCAGCCUCCUCGCUGGCGACGGCUGGGCAACAAUCCGAGGGGACCGUCCCCUCGGUAAUGGCGAAUGGGACCCA, the self-cleavage amounted to 0.185. For GGCCGGCAUGGUCCCAGCCUCCUCGCUGGCGACGGCUGGGCAACAUUCCGAGGGGACCGUCCCCUCGGUAAUGGCGAAUGUGACCCA, the self-cleavage was determined as 0.136. With GGCCGGCAUGGUCCCAGCCUCCUCGCUGGCGACGGCUGGGCAACAUUCCGAGGGGACCGUCCCCUCGGUAAUGGCGAAUGAGACCCA, the self-cleavage is 0.0779. Regarding GGCCGGCAUGGUCCCAGCCUCCUCGCUGGCGACGGCUGGGCAACAUUCCGAGGGGACCGUCCCCUCGGUAAUGGCGAAUGCGACCCA, the self-cleavage was 0.0475. With GGCCGGCAUGGUCCCAGCCUCCUCGCUGGCGACGGCUGGGCAACAUUCCGAGGGGACCGUCCCCUCGGUAAUGGCGAAUGGGACCCC the figure was 0.129; with GGCCGGCAUGGUCCCAGCCUCCUCGCUGGCGACGGCUGGGCAACAUUCCGAGGCGACCGUCCCCUCGGUAAUGGCGAAUGGGACCCA, 0.356. Take GGCCGGCAUGGUCCCAGCCUCCUCGCUGGCGACGGCUGGGCAACAUUCCGAGGAGACCGUCCCCUCGGUAAUGGCGAAUGGGACCCA: the self-cleavage is 0.212. Regarding GGCCGGCAUGGUCCCAGCCUCCUCGCUGGCGACGGCUGGGCAACAUUCCGAGGGGACCGUCCCCUCGGUAAUGGCCAAUGGGACCCA, the self-cleavage worked out at 0.192. With GGCCGGCAUGGUCCCAGCCUCCUCGCUGGCGACGGCUGGGCAACAUUCCGAGGGGACCGUCCCCUCGGUAAUGGCAAAUGGGACCCA the figure was 0.214. For the variant GGCCGGCAUGGUCCCAGCCUCCUCGCUGGCGACGGCUGGGCAACAUUCCGAGGGGACCGUCCCCUCGGUAAUGGCUAAUGGGACCCA, the self-cleavage came out at 0.302.

Take GGCCGGCAUGGUCCCAGCCUCCUCGCUGGCGACGGCUGGGCAACAUUCCGAGGGGAACGUCCCCUCGGUAAUGGCGAAUGGGACCCA: the self-cleavage was 0.295. On to GGCCGGCAUGGUCCCAGCCUCCUCGCUGGCGACGGCUGGGCAACAUUCCGAGGGGAGCGUCCCCUCGGUAAUGGCGAAUGGGACCCA, for which the self-cleavage is 0.389. With GGCCGGCAUGGUCCCAGCCUCCUCGCUGGCGACGGCUGGGCAACAUUCCGAGGGGAUCGUCCCCUCGGUAAUGGCGAAUGGGACCCA the figure was 0.318.

As to GGCCGGCAUGGUCCCAGCCUCCUCGCUGGCGACGGCUGCGCAACAUUCCGAGGGGACCGUCCCCUCGGUAAUGGCGAAUGGGACCCA, the self-cleavage is 0.166. Consider GGCCGGCAUGGUCCCAGCCUCCUCGCUGGCGACGGCUGUGCAACAUUCCGAGGGGACCGUCCCCUCGGUAAUGGCGAAUGGGACCCA, for which the self-cleavage worked out at 0.237.

As for GGCCGGCAUGGUCCCAGCCUCCUCGCUGGCGACGGCGGGGCAACAUUCCGAGGGGACCGUCCCCUCGGUAAUGGCGAAUGGGACCCA, the self-cleavage worked out at 0.166. Turning to GGCCGGCAUGGUCCCAGCCUCCUCGCUGGCGACGGCAGGGCAACAUUCCGAGGGGACCGUCCCCUCGGUAAUGGCGAAUGGGACCCA, the self-cleavage was found to be 0.0627. In the case of GGCCGGCAUGGUCCCAGCCUCCUCGCUGGCGACGGCUGGGCAACAUUCCUAGGGGACCGUCCCCUCGGUAAUGGCGAAUGGGACCCA, the self-cleavage turned out to be 0.178.

On to GGCCGGCAUGGUCCCAGCCUCCUCGCUGGCGACGGCUGGGCAACAUACCGAGGGGACCGUCCCCUCGGUAAUGGCGAAUGGGACCCA, for which the self-cleavage turned out to be 0.322. GGCCGGCAUGGUCCCAGCCUCCUCGCUGGCGACGGCUGGGCAACAUUCCGAGGGGACCGUCCCCUCAGUAAUGGCGAAUGGGACCCA: the self-cleavage stood at 0.211. On to GGCCGGCAUGGUCCCAGCCUCCUCGCUGGCGACGGCUGGGCAACAUUCCGAGGGGACCGUCCCCUCCGUAAUGGCGAAUGGGACCCA, for which the self-cleavage is 0.154.

Consider GGCCGGCAUGGUCCCAGCCUCCUCGCUGGCGACGGCUGGGCAACAUUCCGAGCGGACCGUCCCCUCGGUAAUGGCGAAUGGGACCCA, for which the self-cleavage stood at 0.0923.

GGCCGGCAUGGUCCCAGCCUCCUCGCUGGCGACGGCUGGGCAACAUUCCGAGUGGACCGUCCCCUCGGUAAUGGCGAAUGGGACCCA: the self-cleavage was determined as 0.214.

On to GGCCGGCAUGGUCCCAGCCUCCUCGCUGGCGACGGCUGGGCAACAUUCCGAGGGUACCGUCCCCUCGGUAAUGGCGAAUGGGACCCA, for which the self-cleavage worked out at 0.219.

On to GGCCGGCAUGGUCCCAGCCUCCUCGCUGGCGACGGCUGGGCAACAUUCCGAGGGAACCGUCCCCUCGGUAAUGGCGAAUGGGACCCA, for which the self-cleavage is 0.145. For the variant GGCCGGCAUGGUCCCAGCCUCCUCGCUGGCGACGGCUGGGCAACAUUCCGAGGGCACCGUCCCCUCGGUAAUGGCGAAUGGGACCCA, the self-cleavage was determined as 0.133. On to GGCCGGCAUGGUCCCAGCCUCCUCGCUGGCGACGGCUGGGCAACAUUCCGAGGGGACCGUCCGCUCGGUAAUGGCGAAUGGGACCCA, for which the self-cleavage was 0.095. As to GGCCGGCAUGGUCCCAGCCUCCUCGCUGGCGACGGCUGGGCAACAUUCCGAGGGGACCGUCCACUCGGUAAUGGCGAAUGGGACCCA, the self-cleavage turned out to be 0.232. With GGCCGGCAUGGUCCCAGCCUCCUCGCUGGCGACGGCUGGGCAACAUUACGAGGGGACCGUCCCCUCGGUAAUGGCGAAUGGGACCCA the figure was 0.116; with GGCCGGCAUGGUCCCAGCCUCCUCGCUGGCGACGACUGGGCAACAUUCCGAGGGGACCGUCCCCUCGGUAAUGGCGAAUGGGACCCA, 0.122; with GGCCGGCAUGGUCCCAGCCUCCUCGCUGGCGAGGGCUGGGCAACAUUCCGAGGGGACCGUCCCCUCGGUAAUGGCGAAUGGGACCCA, 0.0405.

Consider GGCCGGCAUGGUCCCAGCCUCCUCGCUGGCGAAGGCUGGGCAACAUUCCGAGGGGACCGUCCCCUCGGUAAUGGCGAAUGGGACCCA, for which the self-cleavage amounted to 0.129.
